In PMC10882061:

Target: Env-K, stabilized HIV Env trimer of BG505 NFL2P gp140 with a C-terminal Peptide K (HIV-1 (BG505))
Experiment: SEC; Sephacryl S-300 after lectin affinity; peaks of aggregates, trimers and monomers; pooled trimer fractions also run on BN-PAGE

Env-K, stabilized HIV Env trimer of BG505 NFL2P gp140 with a C-terminal Peptide K
stoichiometry N: 3
